The values that follow come from IntAct's records for PubMed 34237462.

B1: Anterior gradient protein 2 homolog (Homo sapiens), O95994 (parent)
chain: MEKIPVSAFLLLVALSYTLARDTTVKPGAKKDTKDSRPKLPQTLSRGWGDQLIWTQTYEEALYKSKTSNKPLMIIHHLDECPHSQALKKVFAENKEIQKLAEQFVLLNLVYETTDKHLSPDGQYVPRIMFVDPSLTVRADITGRYSNRLYAYEPADTALLLDNMKKALKLLKTEL

This experiment covers variants of B1. The settings on record: with muc2_human MUC2, Q02817.
For the variant MEKIPVSAFLLLVALSYTLARDTTVKPGAKKDTKDSRPKLPQTLSRGWGDQLIWTQTYEEALYKSKTSNKPLMIIHHLDECPHSQALKKVFAENKEIQKLAEQFVLLNLVYETTDKYLSPDGQYVPRIMFVDPSLTVRADITGRYSNRLYAYEPADTALLLDNMKKALKLLKTEL [H117Y], the “effect of a mutation on the interaction” value was “decreasing interaction strength”.
